Source: PMC8885691 (2022)

Target: p53pΔF19
Assay: ITC

B1: p53-binding domain of human MdmX (N-MdmX, amino acids 22-110) (domain or fragment)
chain: GQINQVRPKLPLLKILHAAGAQGEMFTVKEVMHYLGQYIMVKQLYDQQEQHMVYCGGDLLGELLGRQSFSVKDPSPLYDMLRKNLVTLA
B1 showed a Kd of 20.1 µM.
